Source: patent US6861578B1, “Method for plant protection against insects or nematodes by transformation with a nucleic acid encoding equistatin” (Plant Research International B.V., priority 1997, dated 2005)

Tested on: western corn rootworm cysteine and aspartic protease activity
Assay: Protease activity of western corn rootworm larval gut extract, FITC-hemoglobin
Assay type: biochemical, Diabrotica virgifera
Design: inhibition of protease activity: concentration or dose not given beside the values
Settings: for residual protease activity: recombinant equistatin; for inhibition of protease activity: western corn rootworm
Protocol: Adult western flower thrips (Frankliniella occidentalis) and leafmirer flies (Liriomyza trifolii) adult were harvested from a culture maintained on chrysanthemum plants and complete thrips and flies were homogenized in extraction on buffer (200 mM β-alanine-HCl, pH 3.5) in a volume of 5 times the weight of the insects. The buffer pH was at the previously determined pH optimum of protease activity towards hemoglobin. Final instar Colorado potato beetle larvae maintained on potato plants as described in example 5 were checked for gut aspartic protease activity by preparing a total gut extract in pH 3 buffer which is optimal for Colorado potato beetle aspartic proteases (200 mM glycine, pH 3). Guts were homogenized in 100 μl buffer per gut. Third instar western corn rootworm larvae maintained on corn roots were used to remove the guts. Ten guts were homogenized in 100 μl water and spinned twice to remove insoluble material. Two types of buffers were used in the enzymatic assay. One with a pH presumably favoring cysteine proteases (50 mM MES, pH 6.5; 0.6 mg/ml L-cysteine) and one for detecting aspartic proteases (200 mM glycine, pH 3). Supernatants were stored at −20° C.
2 μl gut extract was combined with 2 μl inhibitor (2 mM pepstatin in methanol, 4 mM E64 in water, 2 mg/ml recombinant equistatin in water. The concentration of the other proteinaceous inhibitors was not known exactly). Appropriate buffers were added to a final volume of 100 μl. After 15′ preincubation 20 μl substrate (5 mg/ml FITC-hemoglobin) was added and incubated for 30-45 min at 37 C.
Reaction was stopped by the addition of 100 μl 10% TCA. Tubes were centrifuged and 100 μl supernatant mixed with 100 μl 10 N NaOH was measured on a fluorimeter for the extent of hemoglobin hydrolysis. Measurements were done in duplicate on one (thrips, leafminer and western corn rootworm), or three (Colorado potato beetle) different gut extracts and varied by a maximum of +/−5%.

B1: equistatin: cysteine/aspartic protease inhibitor from sea anemone Actinia equina with three type I repeated thyroglobulin domains; purified or recombinant from E. coli (protein)
chain: SLTKCQQLQASANSGLIGTYVPQCKETGEFEEKQCWGSTGYCWCVDEDGKEILGTKIRGSPDCSRRKAALTLCQMMQAIIVNVPGWCGPPSCKADGSFDEVQCCASNGECYCVDKKGKELEGTRQQGRPTCERHLSECEEARIKAHSNSLRVEMFVPECLEDGSYNPVQCWPSTGYCWCVDEGGVKVPGSDVRFKRPTC
modifications: left off: large carriers; small tags and cut ends
notes: purified or recombinant from E. coli
residual protease activity (western corn rootworm pH 3): 2% | residual protease activity (western corn rootworm pH 6.5): 7% | inhibition of protease activity (pH 3): 98% | inhibition of protease activity (pH 6.5): 93%
